The nature of data set [1]: Photobleaching test of dye-labeled lispro in expired mouse ear (OR-PAM). The conditions noted are these: 400 μM in Humalog formulation in expired mouse ear; 21 imaging sessions over 3 hours; 780 nm. Format: physicochemical. The protocol:
Before performing live animal experiments, we injected the dye-labeled lispro formulation in the ear of an expired mouse to study the progression of photoacoustic signals to assess photobleaching.
[picture] Figure S1: Photobleaching test of Cy7.5 dye-labeled lispro (400 μM) in Humalog formulation injected in a dead mouse ear. Over the course of 3 hours, 21 imaging sessions were performed and no decrease of photoacoustic signals were found. Scale bar = 500 μm.

Data set [2] can be described thus: OR-PAM quantification and compartmental kinetic modelling of injection-site absorption in mouse ear. Format: in vivo. Particulars: sulfo-cy7.5 dye without lispro, n = 3, result in words. The protocol:
We used 34 gauge needles (207434, Hamilton) with microliter syringes to inject insulin volumes from 0.06 μL to 0.10 μL in the mouse ear. To perform the injection, the syringes were fitted onto a syringe dispenser (PB600, Hamilton), which enabled rapid and controlled injection. The needle was inserted in the mouse ear at an oblique angle (≤45°) and then the desired volume of the dye-labeled insulin lispro formulation was injected using the syringe dispenser. To perform 0.06 μL injections, a 1 μL syringe (80100, Hamilton) was used through which a minimum of 0.02 μL of liquid could be dispensed. To inject 0.1 μL volume, a 5 μL (7634-01, Hamilton) syringe was used. To perform 0.06 μL injection, the 1 μL syringe was fitted with a glass coupler (55752-01, Hamilton) and a luer adaptor (55753-01, Hamilton) to connect to the 34-gauge needle. The 5 μL syringe could be directly connected to the needle.
Mouse experiments were approved as per the IACUC regulations at Caltech. Hsd:Athymic Nude-Fox1^nu mice aged 6–10 weeks (Envigo) were used in all the photoacoustic experiments. The mouse body temperature was maintained at 37 °C during imaging. […]
Since the time required for taking each image is around 220 s, we consider the mid-point of time at which the imaging was started and ended as the imaging time-point. […] All the p values were calculated using unpaired two-sample t-tests. […]

For “sulfo-cy7.5 insulin lispro: insulin lispro acylated at the B-chain lysine B28 epsilon amino group with sulfo-cyanine7.5 NHS ester”, the “photostability (photoacoustic signal)” value in data set [1] is on record as “no decrease in photoacoustic signals after 21 imaging sessions”. With sulfo-cyanine7.5 [sulfo-cy7.5 dye], the “injection-site absorption of dye alone, Lyumjev versus Humalog excipient formulation” value in data set [2] is “absorbed at a faster rate in the Lyumjev formulation”.

The values above are taken from paper PMC9207296, “Photoacoustic imaging reveals mechanisms of rapid-acting insulin formulations dynamics at the injection site” (Molecular Metabolism, 2022).
